The values below come from article PMC10486284.

This assay concerns the target T1, Human TIGIT extracellular domain, C-terminal hexahistidine and AviTag (human), Q495A1.
T1 chain: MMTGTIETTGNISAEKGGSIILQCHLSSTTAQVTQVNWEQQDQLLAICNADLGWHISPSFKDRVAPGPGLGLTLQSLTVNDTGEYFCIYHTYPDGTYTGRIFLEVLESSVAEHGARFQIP
As to the kind of experiment: SEC-MALS. As to conditions: remark: other sources report otherwise. For orientation: In gel filtration, larger molecules generally elute earlier.

B1: Human CD112 extracellular domain, C-terminal hexahistidine, Q92692 32-360 (ligand)
chain: QDVRVQVLPEVRGQLGGTVELPCHLLPPVPGLYISLVTWQRPDAPANHQNVAAFHPKMGPSFPSPKPGSERLSFVSAKQSTGQDTEAELQDATLALHGLTVEDEGNYTCEFATFPKGSVRGMTWLRVIAKPKNQAEAQKVTFSQDPTTVALCISKEGRPPARISWLSSLDWEAKETQVSGTLAGTVTVTSRFTLVPSGRADGVTVTCKVEHESFEEPALIPVTLSVRYPPEVSISGYDDNWYLGRTDATLSCDVRSNPEPTGYDWSTTSGTFPTSAVAQGSQLVIHAVDSLFNTTFVCTVTNAVGMGRAEQVIFVRETPNTAGAGATGG
modifications: here or on the partner: biotin on the BirA biotinylation tag (BLI and ProteOn SPR)
By stoichiometry N is commonly meant the number of molecules, sites or subunits per partner or assembly. The molecule B1 gave a stoichiometry N of 1.
